Measured values reported in patent publication US12359199B2, “Regulation of gene expression via aptamer-mediated control of self-cleaving ribozymes” (MEIRAGTX UK II LIMITED, priority 2016, dated 2025).
Values joined by “and” are separate entries in the source; they are usually repeats but may differ in a detail not shown here. Equal values may be shown once.

What was measured:
Assay type in all cases: cell-based
[1] = test system: firefly luciferase expression in HEK 293 cells; experiment: Firefly luciferase assay of HEK 293 cells transfected with twister ribozyme constructs (no ligand); settings: twister in 3′ UTR of firefly luciferase, compared to pFLuc control construct
Source text: Plasmid constructs: The following primers were used to generate constructs GFP_wasp_No Sac 0HP or GFP_wasp_No Sac 3HP: forward primers NoSac_Fwd (5′ […]) and NoSac3HP_Fwd (5′ […]) and reverse primer MfeI Rev (5′ […]). GFP_wasp-twister vector was used as template and the PCR-amplified DNA fragments were digested with BsrGI and MfeI and cloned into pEGFP-C1 digested with BsrGI and MfeI enzymes. The EGFP gene in pEGFP-C1 was replaced with the firefly luciferase gene to generate the pFLuc vector using Gibson cloning strategy and cloning kit (NEB). The same strategy was used to generate constructs Luc_wasp_No Sac 0HP and Luc_wasp_No Sac 3 HP by replacing the EGFP gene in constructs GFP_wasp_no Sac 0HP and GFP_wasp_no Sac 3HP with the firefly luciferase gene.
Firefly luciferase assay of cultured cells: 24 hours after media change, plates were removed from the incubator, equilibrated to RT for several minutes on a lab bench, and then aspirated. Glo-lysis buffer (Promega, 100 μL, RT) was added, and the plates allowed to remain at RT for at least 5 minutes. […] Following a 5-minute incubation at RT, luminescence was measured using a Tecan machine with 500 mSec read time. The luciferase activity was expressed as mean relative light unit (RLU)±S.D.

[2] = test system: firefly luciferase expression in HEK 293 cells; experiment: Firefly luciferase assay of transfected HEK 293 cells treated with or without guanine or guanosine; settings: for reduction of luciferase gene expression in the presence of guanine: riboswitch and linker2A downstream of start codon, guanine vs untreated control
Protocol: Firefly luciferase assay of cultured cells: 24 hours after media change, plates were removed from the incubator, equilibrated to RT for several minutes on a lab bench, and then aspirated. Glo-lysis buffer (Promega, 100 μL, RT) was added, and the plates allowed to remain at RT for at least 5 minutes. The well contents were mixed by 50 μL trituration, and 20 μL of each sample was mixed with 20 μL of bright-glo reagent (Promega) that had been diluted to 10% in glo-lysis buffer. 96 wells were spaced on an opaque white 384-well plate. Following a 5-minute incubation at RT, luminescence was measured using a Tecan machine with 500 mSec read time. The luciferase activity was expressed as mean relative light unit (RLU)±S.D. […]
Transfection and aptamer ligand treatment: HEK 293 cells were transfected as described in Example 1. Four hours after transfection, the media was aspirated, and new media with or without 500 μM guanine or 1 mM guanosine (Sigma) was added. Luciferase assay was performed 20 to 24 hours after guanine or guanosine treatment as described in Example 2. The reduction fold was expressed as the quotient of luciferase activity obtained in the absence of aptamer ligand divided by the value obtained in the presence of the aptamer ligand.
Oligos containing either a start codon or coding sequence for the first 10 amino acids of GFP and waspGua16 followed by a linker2A sequence were synthesized (IDT) and cloned into the pLuc vector using the Gibson cloning strategy and cloning kit (NEB). Transfection and luciferase assay of cultured cells were performed as described in Example 3. […]

[3] = test system: mouse erythropoietin (Epo) gene expression in HEK 293 cells; experiment: ELISA assay for measuring mouse Epo in culture media of transfected HEK 293 cells; settings: riboswitch in 3′ UTR of mouse Epo gene; ligand-treated vs solvent-treated control cells; supernatant 18 hours after treatment
Protocol: FIG. 3e. HEK 293 cells were transfected with the indicated constructs, and treated with 500 μM guanosine. DMSO was used as solvent control. Supernatant was collected 18 hours after guanosine treatment, the Epo was measured using ELISA kit. The results were expressed as mean±SD (n=2). Shown is the representative of two independent experiments.
ELISA assay for measuring mouse Epo in culture media: Supernatant was collected 18 hours after drug treatment, and an ELISA was performed using ELISA kit (R&D) according to manufacturer's instructions. The data was analyzed using 4-parameter curve fitting.

[4] = test system: firefly luciferase expression in HEK 293 cells; experiment: Firefly luciferase assay of transfected HEK 293 cells treated with or without theophylline
Protocol: Firefly luciferase assay of cultured cells: 24 hours after media change, plates were removed from the incubator, equilibrated to RT for several minutes on a lab bench, and then aspirated. Glo-lysis buffer (Promega, 100 μL, RT) was added, and the plates allowed to remain at RT for at least 5 minutes. The well contents were mixed by 50 μL trituration, and 20 μL of each sample was mixed with 20 μL of bright-glo reagent (Promega) that had been diluted to 10% in glo-lysis buffer. 96 wells were spaced on an opaque white 384-well plate. Following a 5-minute incubation at RT, luminescence was measured using a Tecan machine with 500 mSec read time. The luciferase activity was expressed as mean relative light unit (RLU)±S.D.
Oligos containing the twister ribozyme sequence linked with theophylline aptamer were synthesized (IDT), and cloned into pLuc vector using Gibson cloning strategy and kit (NEB). Construct sequences were verified by DNA sequencing (Genewiz).
Transfection and firefly luciferase assay: HEK 293 cells were transfected as described in Example 1. Four hours after transfection, the media was aspirated, and new media with or without 2 mM theophylline (Sigma) was added. […] The reduction fold was expressed as the quotient of luciferase activity obtained in the absence of aptamer ligand divided by the value obtained in the presence of the aptamer ligand.

[5] = 500 μM guanine vs no guanine, riboswitch in 3′ UTR

B1: Luc_wasp_No Sac 0HP: Firefly luciferase construct with wasp twister without SacII sequence in 3′ UTR (nucleic acid)
DNA: TCAGAGAGATCCTCATAAAGGCCAAGAAGGGCGGAAAGATCGCCGTGTAAACTTGTAATGCGGCCGTGTAAATAATTTACACGTCGGTCTCAAGCCCGATAAACGCAGAGAGCAAGGCGGCCGCCATACCACATTTGTAGAGGTTTTACTTGCTTTAAAAAACCTCCCACACCTCCCCCTGAACCTGAAACATAAAATGAATG
modifications: misc_feature 1..203 wasp_No Sac 0HP in pLuc
B1 was tested, and the “fold reduction of luciferase activity” value [1] was 101 fold.

B2: ATG_waspGua16: waspGua16 and linker2A inserted downstream of ATG and upstream of remaining luciferase coding sequence (nucleic acid)
DNA: ATGACGCCTTGTAATGCGGCATATAATCGCGTGGATATGGCACGCAAGTTTCTACCGGGCACCGTAAATGTCCGACTATTCGGTCTCAAGCCCGATAAACGCAGAGAGCAAGGCGAAGGCGGATCTTCAGGTAGTGGCGAGGGCAGAGGAAGTCTTCTAACATGCGGTGACGTGGAGGAGAATCCCGGCCCCGAAGACGCCAAAAACATAAAGAAAGGCCCGGCGCCA
modifications: misc_feature 1..228 ATG_wtWaspGua16 in pLuc
B2 was tested, and the “reduction of luciferase gene expression in the presence of guanine” value [2] was 68%.

B3: Luci-waspGua16: Luciferase construct with 3 bp of stem connecting the guanine aptamer directly to twister loop 2; OFF riboswitch in 3′ UTR (nucleic acid)
DNA: TCAGAGAGATCCTCATAAAGGCCAAGAAGGGCGGAAAGATCGCCGTGTAAACGCCTTGTAATGCGGCATATAATCGCGTGGATATGGCACGCAAGTTTCTACCGGGCACCGTAAATGTCCGACTATTCGGTCTCAAGCCCGATAAACGCAGAGAGCAAGGCGGCCGCCATACCACATTTGTAGAGGTTTTACTTGCTTTAAAAAACCTCCCACACCTCCCCCTGAACCTGAAACATAAAATGAATGC
modifications: misc_feature 1..247 waspGua16 in pLuc
notes: Luciferase construct with 3 bp of stem connecting the guanine aptamer directly to twister loop 2; OFF riboswitch in 3′ UTR
With B3 the “fold reduction in luciferase activity upon guanine treatment” value [2, 5] was 15 fold and 12 fold, the “reduction in luciferase activity upon guanine treatment” value [2, 5] was 92% and the “reduction in luciferase activity upon guanine treatment (in words)” value ([2]; 500 μM guanine, riboswitch in 3′ UTR) was “reduced luciferase activity”. The “fold reduction in luciferase expression upon guanosine treatment” value ([2]; guanosine at 1 mM as aptamer ligand, riboswitch in 3′ UTR) was 25 fold and the “reduction of Epo production” value [3] was “approximately 30%”.

B4: Luc_wasp_No Sac 3HP: Firefly luciferase construct with wasp twister with 3 bp stem (3HP) at P1 stem in 3′ UTR (nucleic acid)
DNA: TCAGAGAGATCCTCATAAAGGCCAAGAAGGGCGGAAAGATCGCCGTGTAAACGCCTTGTAATGCGGCCGTGTAAATAATTTACACGTCGGTCTCAAGCCCGATAAACGCAGAGAGCAAGGCGGCCGCCATACCACATTTGTAGAGGTTTTACTTGCTTTAAAAAACCTCCCACACCTCCCCCTGAACCTGAAACATAAAATGAATGC
modifications: misc_feature 1..207 wasp_No Sac 3HP in pLuc
notes: Firefly luciferase construct with wasp twister with 3 bp stem (3HP) at P1 stem in 3′ UTR
In the case of B4, the “fold reduction of luciferase activity” value [1] is reported as 254 fold.

B5: 10aa_waspGua16: waspGua16 and linker2A inserted downstream of the coding sequence for the first 10 amino acids of GFP, in pLuc (nucleic acid)
DNA: ATGGTGAGCAAGGGCGAGGAGCTGTTCACCACGCCTTGTAATGCGGCATATAATCGCGTGGATATGGCACGCAAGTTTCTACCGGGCACCGTAAATGTCCGACTATTCGGTCTCAAGCCCGATAAACGCAGAGAGCAAGGCGAAGGCGGATCTTCAGGTAGTGGCGAGGGCAGAGGAAGTCTTCTAACATGCGGTGACGTGGAGGAGAATCCCGGCCCCGAAGACGCCAAAAACATAAAGAAAGGCCCGGCGCCA
modifications: misc_feature 1..255 10aa_wtWaspGua16 in pLuc
B5 was tested, and the “reduction of luciferase gene expression in the presence of guanine” value [2] was 68%.

B6: twister_theo_3: Theophylline aptamer linked by 3 bp stem to loop 2 of twister ribozyme, in pLuc (nucleic acid)
DNA: TCAGAGAGATCCTCATAAAGGCCAAGAAGGGCGGAAAGATCGCCGTGTAAACGCCTTGTAATGCGGCGCGATACCAGCCGAAAGGCCCTTGGCAGCGTTCGGTCTCAAGCCCGATAAACGCAGAGAGCAAGGCGGCCGCCATACCACATTTGTAGAGGTTTTACTTGCTTTAAAAAACCTCCCACACCTCCCCCTGAACCTGAAACATAAAATGAATGC
modifications: misc_feature 1..219 twister_theo_3 in pLuc
notes: Theophylline aptamer linked by 3 bp stem to loop 2 of twister ribozyme, in pLuc
With B6 the “reduction in gene expression (luciferase activity) upon theophylline treatment” value ([4]; 2 mM theophylline vs no theophylline) was 62% and the “luciferase activity in the absence of aptamer ligand (in words)” value ([4]; no theophylline) was “the most robust luciferase activity”.
